The values below come from doi:10.1101/2021.08.20.457142.

The labels stand for the following.
B1: MKK6 D-site peptide / p38-alpha (MAPK14) L195A, full length (parent complex)
chain 1: SQSKGKKRNPGLKIPKEAFEQP
chain 2: MSQERPTFYRQELNKTVWEVPERYQNLSPVGSGAYGSVCAAFDTKTGHRVAVKKLSRPFQSIIHAKRTYRELRLLKHMKHENVIGLLDVFTPARSLEEFNDVYLVTHLMGADLNNIVKCQKLTDDHVQFLIYQILRGLKYIHSADIIHRDLKPSNLAVNEDCELKILDFGLARHTDDEMTGYVATRWYRAPEIMANWMHYNQTVDIWSVGCIMAELLTGRTLFPGTDHIDQLKLILRLVGTPGAELLKKISSESARNYIQSLAQMPKMNFANVFIGANPLAVDLLEKMLVLDSDKRITAAQALAHAYFAQYHDPDDEPVAEPYDQSFESRDFLIDEWKSLTYDEVISFVPPPLDQEEMES

The variants in the experiment derive from B1.
In the case of chain 1 SQSKGKKNNPGLKIPKEAFEQP [chain 1 R8N], the screen value is 0.126 Z-score of the enrichment rate within one screen of 711 sequences.

In the case of chain 1 SQSKGKKLNPGLKIPKEAFEQP [chain 1 R8L], the screen value was 0.23 Z-score of the enrichment rate within one screen of 711 sequences.

For the variant chain 1 SQSKGKKSNPGLKIPKEAFEQP [chain 1 R8S], the screen value was 0.135 Z-score of the enrichment rate within one screen of 711 sequences.

Turning to chain 1 SQSKGKKENPGLKIPKEAFEQP [chain 1 R8E], the screen value was -0.5 Z-score of the enrichment rate within one screen of 711 sequences.

Turning to chain 1 SQSKGKKRNPGAKIPAEAFEQP [chain 1 L12A, chain 1 K16A], the screen value was -0.931 Z-score of the enrichment rate within one screen of 711 sequences.

chain 1 SQSKGKKRNPGGKIPKEAFEQP [chain 1 L12G]: the screen value is -0.861 Z-score of the enrichment rate within one screen of 711 sequences.

As to chain 1 SQSKGKKRNPGHKIPKEAFEQP [chain 1 L12H], the screen value was -1 Z-score of the enrichment rate within one screen of 711 sequences.

As for chain 1 SQSKGKKRNPGAKIPKEAFEQP [chain 1 L12A], the screen value was -1.31 Z-score of the enrichment rate within one screen of 711 sequences.

With chain 1 SQSKGKKRNPGRKIPKEAFEQP [chain 1 L12R], the screen value was -1.21 Z-score of the enrichment rate within one screen of 711 sequences.

Consider chain 1 SQSKGKKRNPGTKIPKEAFEQP [chain 1 L12T], for which the screen value is -1.06 Z-score of the enrichment rate within one screen of 711 sequences.

chain 1 SQSKGAKRNPGAKIPKEAFEQP [chain 1 K6A, chain 1 L12A]: the screen value was -0.715 Z-score of the enrichment rate within one screen of 711 sequences.

For chain 1 SQDKGKKRNPGLKIPKEAFEQP [chain 1 S3D], the screen value was 0.932 Z-score of the enrichment rate within one screen of 711 sequences.

With chain 1 SQCKGKKRNPGLKIPKEAFEQP [chain 1 S3C], the screen value was 1.84 Z-score of the enrichment rate within one screen of 711 sequences.

Take chain 1 SQEKGKKRNPGLKIPKEAFEQP [chain 1 S3E]: the screen value was 0.822 Z-score of the enrichment rate within one screen of 711 sequences.

Regarding chain 1 SQKKGKKRNPGLKIPKEAFEQP [chain 1 S3K], the screen value was 2.42 Z-score of the enrichment rate within one screen of 711 sequences.

On to chain 1 SQSKGKARNPGAKIPKEAFEQP [chain 1 K7A, chain 1 L12A], for which the screen value was -1.2 Z-score of the enrichment rate within one screen of 711 sequences.

chain 1 SQSKGPKRNPGLKIPKEAFEQP [chain 1 K6P]: the screen value is 0.527 Z-score of the enrichment rate within one screen of 711 sequences.

On to chain 1 SQSKGEKRNPGLKIPKEAFEQP [chain 1 K6E], for which the screen value was -0.606 Z-score of the enrichment rate within one screen of 711 sequences.

Regarding chain 1 SQSKGVKRNPGLKIPKEAFEQP [chain 1 K6V], the screen value was 0.748 Z-score of the enrichment rate within one screen of 711 sequences.

With chain 1 SQSKGDKRNPGLKIPKEAFEQP [chain 1 K6D], the screen value is 0.0134 Z-score of the enrichment rate within one screen of 711 sequences.

For chain 1 SQSKGAKRNPGLKIPKEAFEQP [chain 1 K6A], the screen value was 0.653 Z-score of the enrichment rate within one screen of 711 sequences.

As to chain 1 SQSKGKKRNPGLKTPKEAFEQP [chain 1 I14T], the screen value was -1.3 Z-score of the enrichment rate within one screen of 711 sequences.

Consider chain 1 SQSKGKKRNPGLKKPKEAFEQP [chain 1 I14K], for which the screen value was -0.966 Z-score of the enrichment rate within one screen of 711 sequences.

As for chain 1 SQSKGKKRNPGLKNPKEAFEQP [chain 1 I14N], the screen value was -0.906 Z-score of the enrichment rate within one screen of 711 sequences.

Turning to chain 1 SQSDGKKRNPGLKIPKEAFEQP [chain 1 K4D], the screen value was -0.172 Z-score of the enrichment rate within one screen of 711 sequences.

Regarding chain 1 SQSFGKKRNPGLKIPKEAFEQP [chain 1 K4F], the screen value is 1.08 Z-score of the enrichment rate within one screen of 711 sequences.

As to chain 1 SQSIGKKRNPGLKIPKEAFEQP [chain 1 K4I], the screen value is 0.786 Z-score of the enrichment rate within one screen of 711 sequences.

Regarding chain 1 SQSGGKKRNPGLKIPKEAFEQP [chain 1 K4G], the screen value was 0.543 Z-score of the enrichment rate within one screen of 711 sequences.

In the case of chain 1 SQSYGKKRNPGLKIPKEAFEQP [chain 1 K4Y], the screen value was 0.747 Z-score of the enrichment rate within one screen of 711 sequences.

In the case of chain 1 SQSWGKKRNPGLKIPKEAFEQP [chain 1 K4W], the screen value is 1.28 Z-score of the enrichment rate within one screen of 711 sequences.

chain 1 SQSCGKKRNPGLKIPKEAFEQP [chain 1 K4C]: the screen value was 0.526 Z-score of the enrichment rate within one screen of 711 sequences.

With chain 1 SQSPGKKRNPGLKIPKEAFEQP [chain 1 K4P], the screen value is -0.0666 Z-score of the enrichment rate within one screen of 711 sequences.

On to chain 1 SQSQGKKRNPGLKIPKEAFEQP [chain 1 K4Q], for which the screen value is 1.02 Z-score of the enrichment rate within one screen of 711 sequences.

In the case of chain 1 SQSEGKKRNPGLKIPKEAFEQP [chain 1 K4E], the screen value was 0.242 Z-score of the enrichment rate within one screen of 711 sequences.

In the case of chain 1 SQSKGKKRSPGLKIPKEAFEQP [chain 1 N9S], the screen value is 0.752 Z-score of the enrichment rate within one screen of 711 sequences.

For the variant chain 1 SQSKGKKRPPGLKIPKEAFEQP [chain 1 N9P], the screen value is 1.77 Z-score of the enrichment rate within one screen of 711 sequences.

Take chain 1 SQSKGKKRKPGLKIPKEAFEQP [chain 1 N9K]: the screen value was 1.98 Z-score of the enrichment rate within one screen of 711 sequences.

In the case of chain 1 SQSKGKKRTPGLKIPKEAFEQP [chain 1 N9T], the screen value is 0.467 Z-score of the enrichment rate within one screen of 711 sequences.

On to chain 1 SQSKGKKRNPGLKIPQEAFEQP [chain 1 K16Q], for which the screen value was 0.247 Z-score of the enrichment rate within one screen of 711 sequences.

Consider chain 1 SQSKGKKRNPGLKIPPEAFEQP [chain 1 K16P], for which the screen value was 0.798 Z-score of the enrichment rate within one screen of 711 sequences.

For the variant chain 1 SQSKGKKRNPGLKIPAEAFEQP [chain 1 K16A], the screen value is 0.957 Z-score of the enrichment rate within one screen of 711 sequences.

As to chain 1 SQSKGKKRNPGLKIPTEAFEQP [chain 1 K16T], the screen value is 0.151 Z-score of the enrichment rate within one screen of 711 sequences.

Consider chain 1 SQSKGKKRNPGLKAAKEAFEQP [chain 1 I14A, chain 1 P15A], for which the screen value is -1.12 Z-score of the enrichment rate within one screen of 711 sequences.

On to chain 1 SQSKGKKRNPGLKIKKEAFEQP [chain 1 P15K], for which the screen value was 1.65 Z-score of the enrichment rate within one screen of 711 sequences.

With chain 1 SQSKGKKRNPGLKITKEAFEQP [chain 1 P15T], the screen value is 1.24 Z-score of the enrichment rate within one screen of 711 sequences.

For chain 1 SQSKGKKRNPGLKIEKEAFEQP [chain 1 P15E], the screen value was 0.418 Z-score of the enrichment rate within one screen of 711 sequences.

For the variant chain 1 SQSKGKKRNPGLKIYKEAFEQP [chain 1 P15Y], the screen value is 0.93 Z-score of the enrichment rate within one screen of 711 sequences.

As to chain 1 SQSKGKKRNPGLKICKEAFEQP [chain 1 P15C], the screen value is 4.38 Z-score of the enrichment rate within one screen of 711 sequences.

As to chain 1 SQSKGKKRNPGLKIRKEAFEQP [chain 1 P15R], the screen value was 1.68 Z-score of the enrichment rate within one screen of 711 sequences.

Consider chain 1 SQSKGKKRNPGLKIGKEAFEQP [chain 1 P15G], for which the screen value was 0.848 Z-score of the enrichment rate within one screen of 711 sequences.
